Assay results from patent publication US20140314774A1 (UAB RESEARCH FOUNDATION, published 2014).

B1: 1A5 antibody (antibody, V domains shown)
VH: QVQLQQSGAELARPGASVKLSCKASGYTFTDNYINWMKQRPGQGLEWIGEIYPGSGNTYYNEKFKGKATLTADKSSSTAYMQLSSLTSEESAVYFCARSPNLRLYYFDYWGQGTTLTVSS
VL: DIVMTQSPATLSVTPGDRVSLSCRASQSINDYLYWYQQKLHESPRLLIKFASHSISGIPSRFSGSGSGSDFTLSINSVEPEDVGVYYCQNGHSFPLTFGAGTKLELK
notes: Hybridoma monoclonal antibody detected with goat anti-mouse IgG; also called ligand-independent HER3 antibody
B2: 3D4 antibody (antibody, V domains shown)
VH: QVQLQQSGPELVKPGASVRISCKASGYTFTNYFLHWMKQRPGQGLEWIGWIYPGNVNTKYSEKFKGKATLTADKSSSTAYMQLSSLTSEDSAVYFCARSTYYSMDYWGQGTSVTVSS
VL: DIVLTQSPASLAVSLGQRATISCRASESVDSYGNSFMNWYQQKPGQPPKVLIYRASNLESGIPARFSGSGSRTDFTLTITPVEADDVATYYCQQSYEDPPTFGGGTKLEIK
notes: Mouse monoclonal antibody raised against human HER3 expressing SP 2/0 cells; also called ligand-dependent HER3 antibody

Key:
[1] = biological target: T1, recombinant soluble HER3 (extracellular domain) (UniProt P21860 20-643, limits assumed); assay: NRG1 competition ELISA on coated recombinant soluble HER3
T1 construct: extracellular domain; also called ERBB3
T1 sequence (P21860 20-643 limits assumed): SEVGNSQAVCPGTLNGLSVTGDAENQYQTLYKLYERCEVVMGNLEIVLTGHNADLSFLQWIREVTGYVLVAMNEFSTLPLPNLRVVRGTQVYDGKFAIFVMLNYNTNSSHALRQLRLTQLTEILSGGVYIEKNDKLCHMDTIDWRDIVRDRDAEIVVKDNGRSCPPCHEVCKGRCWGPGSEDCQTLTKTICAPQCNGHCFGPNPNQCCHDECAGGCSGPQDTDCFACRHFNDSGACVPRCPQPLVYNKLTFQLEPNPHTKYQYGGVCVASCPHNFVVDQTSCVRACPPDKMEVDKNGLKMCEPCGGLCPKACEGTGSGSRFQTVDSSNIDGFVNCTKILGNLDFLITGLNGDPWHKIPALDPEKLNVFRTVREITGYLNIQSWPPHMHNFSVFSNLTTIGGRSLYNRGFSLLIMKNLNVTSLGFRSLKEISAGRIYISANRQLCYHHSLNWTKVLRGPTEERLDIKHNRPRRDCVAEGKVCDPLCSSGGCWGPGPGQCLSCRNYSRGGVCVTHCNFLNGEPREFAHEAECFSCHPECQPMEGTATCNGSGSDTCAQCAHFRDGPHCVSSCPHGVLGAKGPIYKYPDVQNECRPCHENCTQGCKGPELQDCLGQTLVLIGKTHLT

[2] = biological target: T2, HER3 on HER3-transfected SP 2/0 cells (human, UniProt P21860 20-1342); assay: flow cytometry, HER3-transfected SP2/0 cells stained with 1 µg/ml antibody, PE-goat anti-mouse IgG
T2 construct: whole, on cells; The flow cytometry text says only 'HER3 transfected SP2/0 cells'; also called human HER3 expressing SP 2/0 cells
T2 sequence (P21860 20-1342): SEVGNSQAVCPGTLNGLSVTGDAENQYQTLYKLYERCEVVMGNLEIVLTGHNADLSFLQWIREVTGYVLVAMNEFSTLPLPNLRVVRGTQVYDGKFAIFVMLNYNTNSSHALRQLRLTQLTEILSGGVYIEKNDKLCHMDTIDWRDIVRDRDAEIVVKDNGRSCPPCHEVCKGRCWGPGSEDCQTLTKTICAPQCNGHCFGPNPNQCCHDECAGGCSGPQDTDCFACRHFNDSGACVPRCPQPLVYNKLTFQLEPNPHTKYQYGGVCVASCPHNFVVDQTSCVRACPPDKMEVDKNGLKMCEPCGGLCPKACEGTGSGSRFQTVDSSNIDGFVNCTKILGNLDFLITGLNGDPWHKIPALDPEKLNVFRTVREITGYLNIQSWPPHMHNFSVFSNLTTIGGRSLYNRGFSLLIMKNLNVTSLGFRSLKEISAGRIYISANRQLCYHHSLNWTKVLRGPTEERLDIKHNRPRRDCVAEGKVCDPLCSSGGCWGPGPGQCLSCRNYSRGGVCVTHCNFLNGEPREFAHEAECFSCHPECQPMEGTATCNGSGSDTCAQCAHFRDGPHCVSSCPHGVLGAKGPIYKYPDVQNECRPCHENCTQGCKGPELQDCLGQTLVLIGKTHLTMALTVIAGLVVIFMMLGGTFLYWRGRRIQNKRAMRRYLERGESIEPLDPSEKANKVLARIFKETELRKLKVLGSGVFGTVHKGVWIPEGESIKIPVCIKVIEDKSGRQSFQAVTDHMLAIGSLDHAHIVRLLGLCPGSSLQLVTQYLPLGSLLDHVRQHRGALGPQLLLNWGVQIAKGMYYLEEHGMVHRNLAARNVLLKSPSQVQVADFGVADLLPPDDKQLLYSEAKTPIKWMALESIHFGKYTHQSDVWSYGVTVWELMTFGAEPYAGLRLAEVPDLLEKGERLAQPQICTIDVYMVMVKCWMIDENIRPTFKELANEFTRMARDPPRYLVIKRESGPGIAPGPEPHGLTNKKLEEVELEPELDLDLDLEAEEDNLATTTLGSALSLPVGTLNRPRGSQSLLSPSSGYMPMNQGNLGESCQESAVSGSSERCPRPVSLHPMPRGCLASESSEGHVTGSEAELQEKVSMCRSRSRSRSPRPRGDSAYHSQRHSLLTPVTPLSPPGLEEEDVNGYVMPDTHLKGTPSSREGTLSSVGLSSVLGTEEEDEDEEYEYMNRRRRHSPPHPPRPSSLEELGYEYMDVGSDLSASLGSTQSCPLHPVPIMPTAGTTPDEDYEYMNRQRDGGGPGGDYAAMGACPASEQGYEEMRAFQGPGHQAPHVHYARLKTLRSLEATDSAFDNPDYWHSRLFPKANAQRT
Experimental: The average OD values of triplicates are presented. […] EGFR, HER2 or HER3-transfected SP 2/0 cells were stained with 1 μg/ml of purified antibody, followed by PE-goat anti-mouse IgG.
An ELISA plate was coated with 1 μg/ml of recombinant soluble EGFR, HER2, or the extracellular domain of HER3.

Binder | binding result [1] | binding result [2]
B1 | binds | binds
B2 | binds | binds
